Patent publication US20240109974A1 (SHANDONG SIMCERE BIOPHARMACEUTICAL, published 2024)
Positions count from the first letter of the chain named. Blank lines part the entries; values can stand above or below the binder they belong to.

Columns and labels:
[1] = target: T1, human TNFR2 on the surface of CHO-TNFR2 cells (human, UniProt P20333 23-461); assay: flow cytometry on CHO-TNFR2 cells; area under the MFI fold curve
T1 construct: whole, on cells
T1 sequence (looked up): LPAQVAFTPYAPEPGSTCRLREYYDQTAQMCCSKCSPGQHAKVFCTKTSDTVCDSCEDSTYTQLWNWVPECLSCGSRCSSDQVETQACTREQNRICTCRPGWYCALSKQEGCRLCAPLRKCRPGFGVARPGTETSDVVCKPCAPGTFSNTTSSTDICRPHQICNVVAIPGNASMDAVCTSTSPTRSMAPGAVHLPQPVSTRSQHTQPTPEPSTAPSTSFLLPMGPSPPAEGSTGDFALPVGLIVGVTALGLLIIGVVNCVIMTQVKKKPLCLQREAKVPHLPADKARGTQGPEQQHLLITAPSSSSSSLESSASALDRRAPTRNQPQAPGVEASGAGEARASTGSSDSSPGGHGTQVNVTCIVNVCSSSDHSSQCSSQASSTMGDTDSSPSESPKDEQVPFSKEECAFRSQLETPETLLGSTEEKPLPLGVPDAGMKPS
Description: (§1) The transfected full-length plasmid of human TNFR2 was purchased from Sino Biological (Cat #HG10417-UT, NCBI Ref Seq: NM_001066.2). The experiment was conducted at a cell density within 80%. The cell medium was discarded; the cells were rinsed with PBS, and digested with 1 ml trypsin for 2 minutes; the digestion was stopped with a Ham's F12 complete medium containing 10% FBS, and then a cell suspension was made. The cell suspension was counted, and then an appropriate amount of cell suspension was centrifuged at 350×g; the supernatant was discarded; a corresponding volume of blocking solution (10% FBS+PBS) at a density of 1×10⁷ cells/ml was added to resuspend the cells, and the mixture was incubated at 4° C. for 30 minutes. After the incubation, the mixture was centrifuged at 350×g to remove the supernatant, and the cells were resuspended in a staining buffer (2% FBS+PBS) to a density of 2×10⁶ cells/ml, and spread onto a 96-well plate, with 50 μl of cell suspension added to each well for later use. The antibody was diluted with PBS for 10-fold gradient dilution from the highest concentration of 20 μg/m (twice the concentration); the diluted antibody was added to the well containing 50 μl of cell suspension, and placed on a microplate shaker for shaking at 500 rpm for 1 minute, so that the antibody was fully mixed with the cells; the mixture was incubated at 4° C. for 1 h. After the incubation, the cells were washed twice with the staining buffer, with 100 μl per well, and centrifuged at 350-g for 5 minutes, and the supernatant was discarded. The PE goat anti-Human IgG Fc antibody (ebioscience, Cat #12-4998-82) was diluted 250-fold with the staining buffer, with a volume of 100 μl per well added to the washed cell wells; the mixture was mixed evenly, and stained at 4° C. for 30 minutes. After the staining, similarly, the cells were washed twice with the staining buffer; finally, the cells were resuspended in 200 μl of staining buffer; signals were detected by a flow cytometer (Thermo Attune NxT). The stronger the signal, the stronger the binding ability of an antibody to TNFR2. The binding curve of an antibody was drawn with antibody concentration as the abscissa and corresponding mean fluorescence intensity (MFI) fold as the ordinate, and fitted with four parameters (GraphPad Prism9) to calculate the EC50 value.

[2] = target: T1, human TNFR2 on the surface of CHO-TNFR2 …; assay: flow cytometry on CHO-TNFR2 cells
Description: as §1

[3] = target: T2, Cynomolgus TNFR2-His (Sino 90102-C08H) (cynomolgus monkey, UniProt A0A2K5VET2 132-366); assay: ELISA, cynomolgus TNFR2-His coated
T2 construct: Bought protein; also called cynomolgus monkey TNFR2; recombinant cynomolgus monkey TNFR2 protein; not shown: His tag
T2 sequence: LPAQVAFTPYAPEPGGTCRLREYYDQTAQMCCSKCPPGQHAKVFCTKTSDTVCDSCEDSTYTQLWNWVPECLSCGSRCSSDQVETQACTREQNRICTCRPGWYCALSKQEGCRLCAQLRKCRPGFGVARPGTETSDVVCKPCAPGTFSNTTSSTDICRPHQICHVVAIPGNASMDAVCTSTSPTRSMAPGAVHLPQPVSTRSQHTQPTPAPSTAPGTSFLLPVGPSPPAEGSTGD
Description: (§2) The test humanized antibody against TNFR2 (as described in Example 1, the antibody was comprised of variable regions linked to IgG-Fc; the WT chimeric antibody also adopted the IgG-Fc structure) was subjected to 3.33-fold gradient dilution, loaded with 100 μl/well, and incubated with shaking at room temperature for 1.5 hours. The plate was washed, and then a working solution of murine anti-human IgG Fc-HRP (diluted at 1:10000) was added, loaded with 100 μl/well, and incubated with shaking at room temperature for 1.0 hour. The plate was washed again, and then the substrate TMB of HRP was added to develop colour. A stop solution was added to stop the reaction, and then a microplate reader (MD 13) was used to read the absorbance value. The binding curve of an antibody was drawn with antibody concentration as the abscissa and corresponding OD value as the ordinate, and fitted with four parameters (GraphPad Prism9) to calculate the EC50 value. The smaller the EC50 value, the stronger the binding ability of an antibody to human/cynomolgus monkey TNFR2. The binding effect of a humanized antibody was normalized to its corresponding human-murine chimeric antibody WT (see SEQ ID NOs: 38-43 for the sequence). The higher the percentage value, the better the binding effect of the humanized antibody. The results of binding of an anti-TNFR2 antibody to a human TNFR2 protein are shown in FIG. 1 and Table 4, and the results of binding of an anti-TNFR2 antibody to cynomolgus monkey TNFR2 are shown in FIG. 2 and Table 4.

[4] = target: T3, Human TNFR2-His (Sino 10417-H08H) (human, UniProt P20333 23-257); assay: ELISA, human TNFR2-His coated
T3 construct: Bought protein; also called recombinant human TNFR2 protein; not shown: His tag
T3 sequence (looked up): T2 sequence with G16S, P36S, Q117P, H164N, A210E, G216S, V223M
Description: as §2

AUC [1]: 667
EC50 [2]: 0.04 ng/mL
B1: 224-WT (antibody, V domains shown)
VH: EVQLQESGPEIVKPGASVKLSCTASGFNNKDIYMHWVKQRPEQGLEWIGRIDPATGNTKHDPKFQDKATLSSDTSSNTAYLQFSSLTSEDTAVYYCAHSPYGDFGAMDYWGQGTTVTVSS
VL: DIQMTQSPAIMSASLGERVTMTCTASSSVSSNYLHWYQQKPGSSPKLWIYSTSNLPSGVPARFSGSGSGTSYSLTISSMEAEDAATYYCHQYHRSPWTFGGGTKLEIK
notes: Human-murine chimeric wild-type molecule; also called human-murine chimeric antibody WT of #224

EC50 [3]: 9.98 ng/mL
AUC [1]: 642
EC50 [4]: 10.4 ng/mL
EC50 [2]: 0.04 ng/mL
B2: 224-Hu1 (antibody, V domains shown)
VH: QVQLVQSGAEVKKPGASVKVSCKASGFNNKDIYMHWVRQAPGQGLEWIGRIDPATGNTKHDPKFQDRVTMTSDTSTNTVYMELSSLRSEDTAVYYCARSPYGDFGAMDYWGQGTLVTVSS
VL: DIQMTQSPSSLSASVGDRVTITCTASSSVSSNYLHWYQQKPGKAPKLWIYSTSNLPSGVPSRFSGSGSGTDFTLTISSLQPEDFATYYCHQYHRSPWTFGQGTKVEIK
notes: Humanized form of #224; also called VH8 + VL6

EC50 [3]: 8.39 ng/mL
AUC [1]: 608
EC50 [4]: 9.6 ng/mL
EC50 [2]: 0.03 ng/mL
B3: 224-Hu7 (antibody, V domains shown)
VH: QVQLVQSGSELKKPGASVKVSCKASGFNNKDIYMHWVRQAPGQGLEWMGRIDPATGNTKHDPKFQDKAVLSSDTSVSTAYLQISSLKAEDTAVYYCARSPYGDFGAMDYWGQGTLVTVSS
VL: B2 VL with W48L
notes: Humanized form of #224; also called VH9 + VL10

EC50 [3]: 9.97 ng/mL
AUC [1]: 603
EC50 [4]: 11.1 ng/mL
EC50 [2]: 0.03 ng/mL
B4: 224-Hu6 (antibody, V domains shown)
VH: B2 VH
VL: B2 VL with K43S, A44S
notes: Humanized form of #224; also called VH8 + VL7

AUC [1]: 490
EC50 [2]: 0.035 ng/mL
B5: 001-WT (antibody, V domains shown)
VH: EVQLQESGGGLVQPGGSLNLSCAASGFAFSTYDLSWVRQTPEKRLEWVAYINNGGISTYYSDTVKGRFTISRDNAKNTLYLQMSSLKSEDTAMYYCVRGPFYGSANYFDYWGQGTTVTVSS
VL: EIVMTQSPASLSLSVGETVTITCRTSESIYSNLPWYQQKQGKSPQLLVYDATKLAEGVPSRFSGSESGTQYSLKINSLQSEDFGTYYCQHFWVTPWTFGGGTKLEIK
notes: Human-murine chimeric wild-type molecule; also called human-murine chimeric antibody WT of #001

EC50 [3]: 9.88 ng/mL
AUC [1]: 431
EC50 [4]: 10.2 ng/mL
EC50 [2]: 0.029 ng/mL
B6: 001-Hu5 (antibody, V domains shown)
VH: B5 VH with Q5V, N19R, T40A, E42G, R44G, S84N, K87R, S88A, M93V, T116L
VL: DIQMTQSPSSLSASVGDRVTITCRTSESIYSNLPWYQQKPGKSPKLLVYDATKLAEGVPSRFSGSGSGTDYTLTISSLQPEDFATYYCQHFWVTPWTFGQGTKVEIK
notes: Humanized form of #001; also called VH1 + VL4

EC50 [3]: 9.27 ng/mL
AUC [1]: 452
EC50 [4]: 8.94 ng/mL
EC50 [2]: 0.027 ng/mL
B7: 001-Hu4 (antibody, V domains shown)
VH: EVQLVESGGGLVQPGGSLRLSCAASGFAFSTYDLSWVRQAPGKGLEWVAYINNGGISTYYSDTVKGRFTISRDNAKNSLYLQMNSLRAEDTAVYYCVRGPFYGSANYFDYWGQGTLVTVSS
VL: B6 VL
notes: Humanized form of #001; also called VH2 + VL4

EC50 [3]: 9.62 ng/mL
AUC [1]: 458
EC50 [4]: 9.86 ng/mL
EC50 [2]: 0.045 ng/mL
B8: 001-Hu1 (antibody, V domains shown)
VH: B7 VH with S78T
VL: B6 VL with S43A, V48L
notes: Humanized form of #001; also called VH1 + VL1

EC50 [3]: 9.9 ng/mL
AUC [1]: 431
EC50 [4]: 10.1 ng/mL
EC50 [2]: 0.035 ng/mL
B9: 001-Hu3 (antibody, V domains shown)
VH: B7 VH with S78T
VL: B6 VL with S43A, V48I
notes: Humanized form of #001; also called VH1 + VL3

EC50 [3]: 9.14 ng/mL
AUC [1]: 433
EC50 [4]: 9.56 ng/mL
EC50 [2]: 0.073 ng/mL
B10: 001-Hu2 (antibody, V domains shown)
VH: B7 VH
VL: B6 VL with V48I, Y71F
notes: Humanized form of #001; also called VH2 + VL2

AUC [1]: 516
EC50 [2]: 0.026 ng/mL
B11: 219-WT (antibody, V domains shown)
VH: EVQLQESGAELVRPGASVKLSCKASGYSFTNYWMNWVKQRPGQGLEWIGMIHPSDTETRLNQNFKDKATLTVDKSSSTSYMQLSSPTSEDSAVYYCARGEGLGAARSVSMDYWGQGTTVTVSS
VL: DILMTQSPSSLSASLGDRVTISCRASQDISNYLNWYQQKPDGTVKVLIYYTAILHSGVPSRFSGSGSGTDYSLTISNLEQEDIATYFCQQGNTLPWTFGGGTKLEIK
notes: Human-murine chimeric wild-type molecule

EC50 [3]: 12.7 ng/mL
AUC [1]: 497
EC50 [4]: 21 ng/mL
EC50 [2]: 0.018 ng/mL
B12: 219-Hu3 (antibody, V domains shown)
VH: QVQLVQSGAEVKKPGSSVKVSCKASGYSFTNYWMNWVRQAPGQGLEWMGMIHPSDTETRLNQNFKDRVTITADKSTSTAYMELSSLRSEDTAVYYCARGEGLGAARSVSMDYWGQGTLVTVSS
VL: B11 VL with L3Q, L15V, S22T, V46L, N77S, E79Q, Q80P, I83F, G100Q, L104V
notes: also called VH5 + VL5

EC50 [3]: 12.2 ng/mL
AUC [1]: 481
EC50 [4]: 17.3 ng/mL
EC50 [2]: 0.018 ng/mL
B13: 219-Hu5 (antibody, V domains shown)
VH: B12 VH with A72V
VL: B11 VL with L3Q, L15V, S22T, V46L, N77S, E79Q, Q80P, I83F, G100Q, L104V
notes: also called VH7 + VL5

EC50 [3]: 11.3 ng/mL
AUC [1]: 534
EC50 [4]: 18.5 ng/mL
EC50 [2]: 0.027 ng/mL
B14: 219-Hu2 (antibody, V domains shown)
VH: B12 VH with R67K, V68A
VL: B11 VL with L3Q, L15V, S22T, V46L, N77S, E79Q, Q80P, I83F, G100Q, L104V
notes: also called VH4 + VL5

EC50 [3]: 14.8 ng/mL
AUC [1]: 565
EC50 [4]: 21.3 ng/mL
EC50 [2]: 0.026 ng/mL
B15: 219-Hu1 (antibody, V domains shown)
VH: B12 VH with S16A, G44R, A72R, K74T, T76A
VL: B11 VL with L3Q, L15V, S22T, V46L, N77S, E79Q, Q80P, I83F, G100Q, L104V
notes: also called VH3 + VL5

EC50 [3]: 12.2 ng/mL
AUC [1]: 493
EC50 [4]: 16.8 ng/mL
EC50 [2]: 0.018 ng/mL
B16: 219-Hu4 (antibody, V domains shown)
VH: B12 VH with R38K, M48I, R67K, V68A, I70L, A72V
VL: B11 VL with L3Q, L15V, S22T, V46L, N77S, E79Q, Q80P, I83F, G100Q, L104V
notes: also called VH6 + VL5
